Measurements: patent publication US20240279325A1 (Chugai, published 2024)
Substitutions are numbered along the chain they refer to. Names may count otherwise.

B1: IL6R-2B171/IL6R-L (antibody, human IgG1, kappa, name in EU numbering)
heavy: QVQLQESGPGLVKPSETLSLTCAVSGHSISHDHAWSWVRQPPGEGLEWIGFISYSGITNYNPSLQGRVTISRDNSKNTLYLQMNSLRAEDTAVYYCARSLARTTAMDYWGEGTLVTVSSASTKGPSVFPLAPSSKSTSGGTAALGCLVKDYFPEPVTVSWNSGALTSGVHTFPAVLQSSGLYSLSSVVTVPSSSLGTQTYICNVNHKPSNTKVDKKVEPKSCDKTHTCPPCPAPELLGGDSVFLFPPKPKDTLMISRTPEVTCVVVDVSHEDPEVKFNWYVDGVEVHNAKTKPREEQYNSTYRVVSVLTVLHQDWLNGKEYKCKLSNKALPAPIEKTISKAKGQPREPQVYTLPPSRDELTKNQVSLTCLVKGFYPSDIAVEWESNGQPENNYKTTPPVLDSDGSFFLYSKLTVDKSRWQQGNVFSCSVMHEALHNHYTQESLSLSP
light: not shown
notes: Alterations introduced into IL6R-B3; also called P238D/V323L; copies: 2 + 2
B2: IL6R-2B172/IL6R-L (antibody, human IgG1, kappa, name in EU numbering)
heavy: B1 heavy with L325M
light: not shown
notes: Alterations introduced into IL6R-B3; also called P238D/V323M; copies: 2 + 2
B3: IL6R-BP078/IL6R-L (antibody, human IgG1, kappa, name in EU numbering)
heavy: B1 heavy with L325V, A332M
light: not shown
notes: Alterations introduced into IL6R-B3; also called P238D/A330M; copies: 2 + 2
B4: IL6R-BP100/IL6R-L (antibody, human IgG1, kappa, name in EU numbering)
heavy: B1 heavy with S269A, L325V
light: not shown
notes: Alterations introduced into IL6R-B3; also called P238D/S267A; copies: 2 + 2
B5: IL6R-BP102/IL6R-L (antibody, human IgG1, kappa, name in EU numbering)
heavy: B1 heavy with S269Q, L325V
light: not shown
notes: Alterations introduced into IL6R-B3; also called P238D/S267Q; copies: 2 + 2
B6: IL6R-BP103/IL6R-L (antibody, human IgG1, kappa, name in EU numbering)
heavy: B1 heavy with S269V, L325V
light: not shown
notes: Alterations introduced into IL6R-B3; also called P238D/S267V; copies: 2 + 2
B7: IL6R-BP106/IL6R-L (antibody, human IgG1, kappa, name in EU numbering)
heavy: B1 heavy with H270D, L325V
light: not shown
notes: Alterations introduced into IL6R-B3; also called P238D/H268D; copies: 2 + 2
B8: IL6R-BP107/IL6R-L (antibody, human IgG1, kappa, name in EU numbering)
heavy: B1 heavy with H270E, L325V
light: not shown
notes: Alterations introduced into IL6R-B3; also called P238D/H268E; copies: 2 + 2
B9: IL6R-BP110/IL6R-L (antibody, human IgG1, kappa, name in EU numbering)
heavy: B1 heavy with H270N, L325V
light: not shown
notes: Alterations introduced into IL6R-B3; also called P238D/H268N; copies: 2 + 2
B10: IL6R-BP116/IL6R-L (antibody, human IgG1, kappa, name in EU numbering)
heavy: B1 heavy with L325V, K328T
light: not shown
notes: Alterations introduced into IL6R-B3; also called P238D/K326T; copies: 2 + 2
B11: IL6R-BP117/IL6R-L (antibody, human IgG1, kappa, name in EU numbering)
heavy: B1 heavy with L325V, K328D
light: not shown
notes: Alterations introduced into IL6R-B3; also called P238D/K326D; copies: 2 + 2
B12: IL6R-BP118/IL6R-L (antibody, human IgG1, kappa, name in EU numbering)
heavy: B1 heavy with L325V, K328S
light: not shown
notes: Alterations introduced into IL6R-B3; also called P238D/K326S; copies: 2 + 2
B13: IL6R-BP119/IL6R-L (antibody, human IgG1, kappa, name in EU numbering)
heavy: B1 heavy with L325V, K328M
light: not shown
notes: Alterations introduced into IL6R-B3; also called P238D/K326M; copies: 2 + 2
B14: IL6R-BP120/IL6R-L (antibody, human IgG1, kappa, name in EU numbering)
heavy: B1 heavy with L325V, K328E
light: not shown
notes: Alterations introduced into IL6R-B3; also called P238D/K326E; copies: 2 + 2
B15: IL6R-BP121/IL6R-L (antibody, human IgG1, kappa, name in EU numbering)
heavy: B1 heavy with L325V, K328Q
light: not shown
notes: Alterations introduced into IL6R-B3; also called P238D/K326Q; copies: 2 + 2
B16: IL6R-BP126/IL6R-L (antibody, human IgG1, kappa, name in EU numbering)
heavy: B1 heavy with L325V, K328L
light: not shown
notes: Alterations introduced into IL6R-B3; also called P238D/K326L; copies: 2 + 2
B17: IL6R-BP136/IL6R-L (antibody, human IgG1, kappa, name in EU numbering)
heavy: B1 heavy with L325V, K328A
light: not shown
notes: Alterations introduced into IL6R-B3; also called P238D/K326A; copies: 2 + 2
B18: IL6R-BP142/IL6R-L (antibody, human IgG1, kappa, name in EU numbering)
heavy: B1 heavy with L325V, K328N
light: not shown
notes: Alterations introduced into IL6R-B3; also called P238D/K326N; copies: 2 + 2
B19: IL6R-BP911/IL6R-L (antibody, human IgG1, kappa, name in EU numbering)
heavy: B1 heavy with L325V, A332K
light: not shown
notes: Alterations introduced into IL6R-B3; also called P238D/A330K; copies: 2 + 2
B20: IL6R-BP912/IL6R-L (antibody, human IgG1, kappa, name in EU numbering)
heavy: B1 heavy with L325V, A332R
light: not shown
notes: Alterations introduced into IL6R-B3; also called P238D/A330R; copies: 2 + 2

Biological target: T1, human FcγRIIIa type V (allotype V158) extracellular domain with C-terminal His tag (human, UniProt P08637 17-208)
T1 construct: also called FcγRIIIaV
Experiment: SPR (Biacore), antibody captured, FcγR analyte

T1 sequence (P08637 other isoform, or with tags, fused parts or gaps): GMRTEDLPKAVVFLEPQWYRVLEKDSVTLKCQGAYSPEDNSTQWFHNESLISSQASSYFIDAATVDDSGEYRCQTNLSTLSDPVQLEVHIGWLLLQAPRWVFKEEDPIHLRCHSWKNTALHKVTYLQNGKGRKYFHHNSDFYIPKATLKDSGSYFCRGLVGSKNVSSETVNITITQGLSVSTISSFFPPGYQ

Binder | Kd [µM]
B1 | 57
B2 | 48
B3 | 78
B4 | 59
B5 | 82
B6 | 110
B7 | 55
B8 | 63
B9 | 64
B10 | 72
B11 | 67
B12 | 56
B13 | 56
B14 | 79
B15 | 52
B16 | 56
B17 | 69
B18 | 110
B19 | 58
B20 | 78
